Source: patent US11339371B2, “Method for inducing pluripotent stem cells to differentiate into ventricular myocytes in vitro” (Institute of Biophysics, Chinese Academy of Sciences, priority 2012, dated 2022)

Columns and labels:
Type in all cases: cell-based, human
[1] = tested on: differentiated CMs; assay: action potential classification of differentiated CMs (patch clamp); conditions: for proportion of CMs with ventricular-like APs: treatment alone during middle stage, differentiated CMs at 90 days
Procedure: (§1) In some embodiments, from about day 14 of differentiation, growth factor-free medium is used and replaced every 3 days. After about 60 to about 90 days of differentiation, the percentage of VMs in the differentiated CMs was determined with the analysis of APs of CMs (recorded by the patch clamp technique), calcium imagining studies, and/or MLC-2v and cardiac troponin T (cTNT) double immunofluorescence staining for flow cytometric analysis.
(§2) RA represents 1 μM retinoic acid; B represents BMP4; NVa represents vitamin A-free medium; N represents noggin; and numbers represent the concentrations (Unit is ng/mL). The RARγ concentration is 0.1 μM.
(§3) 5) As mentioned above, during early differentiation of CMs, IRX-4 is an important gene with specific expression in differentiated VMs. As CMs mature, VMs begin to specifically express the MLC-2v gene. Thus, the MLC-2v expression level was measured in differentiated cells at day 90 of culture after treatment with various growth factors. […] Moreover, flow cytometry was performed to determine the proportion of MLC-2v-expressing VMs among differentiated CMs (cTNT-expressing cells) at day 90. […] The most classical method to identify the subtypes of CMs is to measure the APs of the CMs. The proportions of cells with atrial-, ventricular-, and nodal-like APs among differentiated CMs were analyzed after treatment with retinoic acid and various doses of BMP4 (FIG. 8).

[2] = tested on: MLC-2v-expressing VMs among differentiated CMs; assay: flow cytometry of MLC-2v-expressing cells among cTNT-expressing CMs at day 90; conditions: for proportion of MLC-2v-expressing cells among differentiated CMs: day 90
Procedure: as §1, §2, §3

[3] = tested on: BMP2; assay: quantitative RT-PCR of BMP2 expression at day 6 of differentiation; conditions: added with DKK1, vitamin A-free medium
From the text: The results of quantitative RT-PCR are indicated as relative values compared with those of GADPH. NVa represents vitamin A-free medium.
Additionally, in vitamin A-containing medium, early specific IRX-4 expression in VMs was activated by addition of DKK1 and antagonists of RARα and RAR. This indicated induced differentiation of stem cells into VMs. Because retinoic acid has three RARs receptors (RARα, RARβ, and RARγ), simultaneous inhibition of RARα and RARβ in the presence of vitamin A or retinoic acid has a similar mechanism and effect as that of independent activation of RARγ alone.

[4] = tested on: IRX-4; assay: quantitative RT-PCR of ventricle-specific early marker gene IRX-4 at day 14 of differentiation; conditions: for IRX-4 expression level (FIG. 2A): added to the cultures at various concentrations, relative to GADPH
From the text: T-Smad1/5/8 represents total Smad1/5/8 proteins. β-actin served as an internal loading control. The histogram in FIG. 1C presents the experimental results of quantitative RT-PCR analysis of IRX-4 gene expression levels at 14 days of differentiation. […] Connected line indicates the cardiac differentiation efficiency of the stem cells under the corresponding inductive conditions. N represents noggin, B represents BMP4; NVa represents differentiated cells cultured in vitamin A-free medium; RA represents retinoic acid; and numbers represent the concentrations (Unit for BMP4 is ng/mL). Data are expressed as relative values compared with the expression level of glyceraldehyde-3-phosphate dehydrogenase (GADPH).
FIG. 2 presents quantitative RT-PCR analysis of the expression levels of the ventricle-specific early marker gene IRX-4 at day 14 in differentiated cultures with various treatments. […] However, the expression level is reduced by addition of a BMP antagonist, noggin. […] N represents noggin; B represents BMP4, NVa represents differentiated cells treated in vitamin A-free medium; RA represents retinoic acid; and numbers represents the concentrations (Unit is ng/mL). The results of quantitative RT-PCR are indicated as relative values compared with the expression levels of GADPH.
RA represents retinoic acid; RAi represents a retinoic acid inhibitor, BMS189453; NVa represents vitamin A-free medium; The RAR pan-antagonist is BMS493. The results of quantitative RT-PCR are expressed as relative values compared with cTNT expression
2) The role of the BMP pathway in directed differentiation of CM subtypes was analyzed further during cardiac differentiation of stem cells. IRX-4 is a marker gene expressed during early differentiation of VMs. Thus, the IRX-4 expression level was measured to further study the role of the BMP pathway in differentiation of CM subtypes.

[5] = tested on: differentiated CMs; assay: calcium imaging of differentiated CMs by confocal laser scanning microscopy at 60-90 days; conditions: 60-90 days of differentiation
From the text: FIG. 5 presents images from confocal laser scanning microscopy and simultaneous recordings of APs of calcium activity in differentiated CMs and the classification of the differentiated CMs according to the specific calcium activity patterns in the various types of CMs. […] FIG. 5B presents the proportions of CMs with Ca^2+ sparks, Ca^2+ transients, and Ca^2+ oscillations in different treatments as classified by calcium signaling patterns of the various subtypes of CMs in A. The vertical axis represents the proportions of CMs with the three different calcium activities; RA represents 1 μM retinoic acid; Letter B represents BMP4; NVa represents vitamin A-free medium; N represents noggin; and numbers represent the concentrations (ng/mL).
4) To verify the role of the BMP pathway in regulating the differentiation of VMs from stem cells, calcium activities of cardiomyocytes were recorded with confocal laser scanning microscopy at 60-90 days of differentiation. Calcium activity in VMs clearly differs from that in AMs and nodel cells. Calcium activity in VMs has a higher imaging frequency, known as Ca^+ sparks. […] Thus, comparing the image pattern of calcium activities in CMs is an effective method to distinguish VMs from AMs and nodel cells.

[6] = tested on: MLC-2v; assay: western blot of MLC-2v expression in differentiated cells at day 90
Procedure: FIG. 4B presents the results of double immunofluorescence staining of cTNT and MLC-2v in CMs at day 90 of differentiation after retinoic acid, BMP4, and noggin treatments. Letter B in the figures represents BMP4, NVa represents differentiated cells cultured in vitamin A-free medium; RA represents 1 μM retinoic acid; and numbers represent the concentrations (ng/mL).
as §3

| Molecule | proportion of CMs with ventricular-like APs [1] | proportion of MLC-2v-expressing cardiomyocytes in cardiomyocytes population (cTNT-expressing cells) ([2]; 90 days of differentiation, 0.1 μM, vitamin A-free medium) | BMP2 expression [3] | ventricle-specific IRX-4 expression ([4]; added along with DKK1 during middle stage of cardiac differentiation, vitamin A-free medium, relative to cTNT) | IRX-4 expression level (FIG. 2A) ([4]; day 14) | elevation of the IRX-4 expression level by BMP4 in the presence of retinoic acid (FIG. 2D) ([4]; increasing concentrations of noggin, day 14) | IRX-4 expression level ([4]; vitamin A-free medium, added day 5 to day 8 of differentiation, 300, 600, 1200 ng/mL) | proportion of cells with ventricular-like APs ([1]; differentiated CMs after retinoic acid treatment, increasing doses of BMP4) | proportion of cells with Ca+ sparks among differentiated CMs ([5]; retinoic acid plus increasing BMP4) | proportion of cells with Ca+ transients among differentiated CMs ([5]; retinoic acid treatment, with or without BMP4) | proportion of MLC-2v-expressing cells among differentiated CMs ([2]; BMP4 added to cells after retinoic acid treatment) | proportion of MLC-2v-expressing cells among differentiated CMs ([2]; BMP4 treatment alone) | MLC-2v protein expression level [6] | IRX-4 expression level in retinoic acid-treated culture ([4]; added simultaneously with 1 μM retinoic acid, day 5 to day 8, various doses) |
| --- | --- | --- | --- | --- | --- | --- | --- | --- | --- | --- | --- | --- | --- | --- |
| CC1(C)CCC(C)(C)c2cc([C@@H](O)C(=O)Nc3ccc(C(=O)O)cc3F)ccc21 [RARγ, reference compound] | 92% | up to 80% | high expression | high expression |  |  |  |  |  |  |  |  |  |  |
| noggin: BMP2/4 pathway inhibitor (BMP antagonist); purchased from R&D systems (protein, UniProt Q13253 28-232, looked up) Noggin: QHYLHIRPAPSDNLPLVDLIEHPDPIFDPKEKDLNETLLRSLLGGHYDPGFMATSPPEDRPGGGGGAAGGAEDLAELDQLLRQRPSGAMPSEIKGLEFSEGLAQGKKQRLSKKLRRKLQMWLWSQTFCPVLYAWNDLGSRFWPRYVKVGSCFSKRSCSVPEGMVCKPSKSVHLTVLRWRCQRRGGQRCGWIPIQYPIISECKCSC |  |  |  |  | reduced | reduced with additions of increasing concentrations of noggin | effectively reduced |  |  |  |  |  |  |  |
| BMP4: bone morphogenetic protein, growth factor activating Smad1/5/8 signaling; purchased from R&D systems (protein, UniProt P12644 293-408, looked up) Bone morphogenetic protein 4: SPKHHSQRARKKNKNCRRHSLYVDFSDVGWNDWIVAPPGYQAFYCHGDCPFPLADHLNSTNHAIVQTLVNSVNSSIPKACCVPTELSAISMLYLDEYDKVVLKNYQEMVVEGCGCR | more than 90% |  |  |  | elevated with increasing concentrations of BMP4 |  |  | increased significantly | increased with increasing concentrations of BMP4 | decreased with increasing concentrations of BMP4 | effectively increased | highest proportion | increased with increasing concentrations of BMP4 | increased correspondingly |
